This experiment concerns the target CD3 ζ chain (phosphorylated ITAMs) of the TCR complex (human) (UniProt P20963). Briefly: cell-based or functional assay.

Data on one substance can be found in patent publication US20230151373A1, “CHIMERIC POLYPEPTIDE FOR REGULATING IMMUNE CELLS” (STICHTING HET NEDERLANDS KANKER INSTITUUT-ANTONI VAN …, priority 2019, published 2023).

Chain of CD3 ζ chain (phosphorylated ITAMs) of the TCR complex (human) (P20963 22-164, one chain of several): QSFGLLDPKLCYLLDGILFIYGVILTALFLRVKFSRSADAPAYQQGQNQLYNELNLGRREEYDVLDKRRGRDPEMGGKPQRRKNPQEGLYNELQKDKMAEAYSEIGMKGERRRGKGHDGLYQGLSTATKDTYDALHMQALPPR

For “Zap70 2×SH2 domains-PD1 tail fusion protein (from UniProt P43403 1-264; Q15116 192-288)”, the reduction in percentage responding cells (IFNγ), CDK4 TCR T cells co-cultured with 10 nM peptide loaded T2 cells, relative to vector control stood at 104 fold; the reduction in percentage responding cells (IL-2), CDK4 TCR T cells co-cultured with 10 nM peptide loaded T2 cells, relative to vector control turned out to be 110 fold; the reduction in percentage responding cells (TNFα), CDK4 TCR T cells co-cultured with 10 nM peptide loaded T2 cells, relative to vector control amounted to 81 fold; the reduction in percentage responding cells (cell surface LAMP1), CDK4 TCR T cells co-cultured with 10 nM peptide loaded T2 cells, relative to vector control amounted to 40 fold.
